Data set [1] in a line: Phase 1b study of vantictumab in combination with docetaxel in NSCLC patients / Phase 1 program. In kind it is in vivo. The following applies: Cohorts 1 and 2: vantictumab 5 and 10 mg/kg Day 1 of 21-day cycle with docetaxel 75 mg/m^2. The text has this: The study is an open-label Phase 1b dose-escalation study of vantictumab in combination with docetaxel in patients with previously treated recurrent or advanced non-small cell lung cancer (NSCLC). The primary objectives of the study are to determine the safety and the maximum tolerated dose of vantictumab in combination with docetaxel. To identify a recommended Phase 2 dose for vantictumab in combination with docetaxel. The secondary objectives are to characterize the pharmacokinetics (PK) of vantictumab when administered in combination with docetaxel, to characterize the immunogenicity of vantictumab, and to make preliminary assessment of vantictumab efficacy when administered in combination with docetaxel.
Vantictumab is administered on Day 1 of each 21-day cycle. The dose levels of vantictumab for Cohorts 1 and 2 were 5 mg/kg and 10 mg/kg, respectively. For Cohorts 1 and 2, docetaxel (75 mg/m^2) is administered IV on Day 1 of each cycle. […] Patients of Cohorts 3 and 4 will be administered vantictumab at 2 mg/kg and 4 mg/kg once every 3 weeks, respectively. No dose escalation of vantictumab will be allowed within a dose cohort. A staggered dosing regimen will be evaluated in Cohorts 3 and 4. Docetaxel (75 mg/m^2) will be administered IV on Day 3 of each cycle.

Data set [2] deals with OMP-OV40 ovarian tumor cells. Kind of data set: OMP-OV40 ovarian tumor xenograft, staggered dosing of Wnt inhibitors and paclitaxel (Example 11). Type of data set: in vivo, NOD/SCID mice. The following applies: Wnt pathway inhibitor 25 mg/kg administered 2 days prior to paclitaxel 20 mg/kg, every two weeks i.p.; versus single agents; FIG. 9. The method, then: FIG. 9A-9B. Inhibition of ovarian tumor growth in vivo by a Wnt pathway inhibitor in combination with a taxane using a staggered dosing schedule. FIG. 9A. OMP-OV40 ovarian tumor cells were injected subcutaneously into NOD/SCID mice. Mice were treated with control antibody (-•-), OMP-18R5 (-▴-), paclitaxel (-▪-), or a combination of OMP-18R5 and paclitaxel, where OMP-18R5 was administered 2 days prior to administration of paclitaxel (-⋄-). […]. OMP-OV40 ovarian tumor cells were injected subcutaneously into NOD/SCID mice. Mice were treated with control antibody (-•-), OMP-54F28 (-▴-), paclitaxel (-▪-), or a combination of OMP-54F28 and paclitaxel, where OMP-54F28 was administered 2 days prior to administration of paclitaxel (-⋄-). OMP-18R5, OMP-54F28 and control antibody were administered at 25 mg/kg and paclitaxel was administered at 20 mg/kg. Agents were administered once every two weeks and administered intraperitoneally. Data is shown as tumor volume (mm^3) over days post treatment.
Single cell suspensions of xenograft OMP-OV40 ovarian tumor cells were injected subcutaneously into 6-8 week old NOD/SCID mice. Tumors were allowed to grow until they reached an average volume of approximately 128 mm^3. […] Tumor growth was monitored and tumor volumes were measured with electronic calipers at the indicated time points. Data are expressed as mean±S.E.M.

Data set [3] has as its system OMP-B90 breast tumor cells. The experiment in a line: OMP-B90 breast tumor xenograft, staggered dosing of Wnt inhibitors and paclitaxel (Example 9). The following applies: Wnt pathway inhibitor 25 mg/kg every two weeks, administered 2 days prior to paclitaxel 10 mg/kg once a week, i.p., FIG. 7. Type of data set: in vivo, NOD/SCID mice. The method, then:
FIG. 7A-7B. Inhibition of breast tumor growth in vivo by a Wnt pathway inhibitor in combination with a taxane using a staggered dosing schedule. FIG. 7A. OMP-B90 breast tumor cells were injected subcutaneously into NOD/SCID mice. Mice were treated with control antibody (-•-), paclitaxel (-▴-), a combination of OMP-18R5 and paclitaxel, where OMP-18R5 was administered on the same day as paclitaxel (-□-), or a combination of OMP-18R5 and paclitaxel, where OMP-18R5 was administered 2 days prior to administration of paclitaxel (-⋄-). FIG. 7B. OMP-B90 breast tumor cells were injected subcutaneously into NOD/SCID mice. Mice were treated with control antibody (-•-), OMP-54F28 (-▪-), paclitaxel (-▴-), a combination of OMP-54F28 and paclitaxel, where OMP-54F28 was administered on the same day as paclitaxel (-□-), or a combination of OMP-54F28 and paclitaxel, where OMP-54F28 was administered 2 days prior to administration of paclitaxel (-⋄-). OMP-18R5, OMP-54F28 and control antibody were administered at 25 mg/kg and paclitaxel was administered at 10 mg/kg. […]
Single cell suspensions of xenograft OMP-B90 breast tumor cells were injected subcutaneously into 6-8 week old NOD/SCID mice. […] Tumor growth was monitored and tumor volumes were measured with electronic calipers at the indicated time points. Data are expressed as mean±S.E.M.

“Also recorded” adds a separate entry of the source.

B1: OMP-18R5: anti-FZD antibody, IgG2, also known as vantictumab; heavy chain SEQ ID NO:3, light chain SEQ ID NO:4 (antibody)
heavy: EVQLVESGGGLVQPGGSLRLSCAASGFTFSHYTLSWVRQAPGKGLEWVSVISGDGSYTYYADSVKGRFTISSDNSKNTLYLQMNSLRAEDTAVYYCARNFIKYVFANWGQGTLVTVSSASTKGPSVFPLAPCSRSTSESTAALGCLVKDYFPEPVTVSWNSGALTSGVHTFPAVLQSSGLYSLSSVVTVPSSNFGTQTYTCNVDHKPSNTKVDKTVERKCCVECPPCPAPPVAGPSVFLFPPKPKDTLMISRTPEVTCVVVDVSHEDPEVQFNWYVDGVEVHNAKTKPREEQFNSTFRVVSVLTVVHQDWLNGKEYKCKVSNKGLPAPIEKTISKTKGQPREPQVYTLPPSREEMTKNQVSLTCLVKGFYPSDIAVEWESNGQPENNYKTTPPMLDSDGSFFLYSKLTVDKSRWQQGNVFSCSVMHEALHNHYTQKSLSLSPGK
light: DIELTQPPSVSVAPGQTARISCSGDNIGSFYVHWYQQKPGQAPVLVIYDKSNRPSGIPERFSGSNSGNTATLTISGTQAEDEADYYCQSYANTLSLVFGGGTKLTVLGQPKAAPSVTLFPPSSEELQANKATLVCLISDFYPGAVTVAWKADSSPVKAGVETTTPSKQSNNKYAASSYLSLTPEQWKSHRSYSCQVTHEGSTVEKTVAPTECS
For the molecule B1, the “adverse events leading to discontinuation” value in data set [1] is recorded as “fragility fractures observed”. Moreover, the “inhibition of tumor growth (tumor volume)” value in data set [2] is listed as “inhibited tumor growth of the OMP-OV40 ovarian tumor cells to a greater extent than either the Wnt pathway inhibitors or paclitaxel alone; also recorded: inhibited tumor growth”; in data set [3] (versus other dosing regimens), “significantly better at inhibiting tumor growth of the OMP-B90 breast tumor cells than any of the other dosing regimens”. Moreover, the “regression of established tumors” value in data set [3] is “induced a regression of the established breast tumors”.
